In patent US20210308211A1, “METHOD OF TREATING VIRAL INFECTIONS” (priority 2020, published 2021):
Non-standard residues stand in square brackets, D forms with d. Residues, ends and D or L forms follow the SMILES beside them. No end group written: not given here. Met(O) = CS(=O)CC[C@H](N)C(=O)O; pS = N[C@@H](COP(=O)(O)O)C(=O)O

Legend:
HSC70 protein = target: T1, HSC70 protein (Bos taurus, UniProt P19120); assay: BIAcore binding of peptides to immobilized HSC70; design: species or system bovine
T1 construct: purchased Stressgen
Protocol: BIAcore 3000 system (Biacore AB) was used to evaluate the binding of P140 peptides to HSC70 protein (Page et al., 2009, and 2011). Sensor chip CM5, surfactant P20, amine coupling kit containing N-hydroxysuccinimide (NHS) and N-ethyl-N′-dimethylaminopropyl carbodiimide (EDC), 2-(2-pyridinyldithio)ethaneamine (PDEA) and ethanolamine were from Biacore AB. Biosensor assays were performed with HBS-EP buffer as running buffer (10 mM HEPES, 150 mM NaCl, 3 mM EDTA, 0.005% surfactant P20, pH 7.4). The compounds were diluted in the running buffer. The sensor chip surface was regenerated after each experiment by injecting 10 μL of 10 mM HCl. Recombinant bovine HSC70 (Stressgen) was immobilized on flow cells of a CM5 sensor chip through its thiol groups using 35 μL PDEA in 50 mM borate buffer, pH 8.3 on the NHS/EDC-activated matrix. Then, 35 μL of HSC70 (100 μg/mL in formate buffer, pH 4.3) were injected until a response of 13,000 response units (RU) corresponding to 13 ng/mm^2 of HSC70 was immobilized. Twenty μL of a 50 mM cysteine/1 M NaCl solution was used to saturate unoccupied sites on the chip. The direct binding measurement of P140 peptides to HSC70 was carried out at 25° C. with a constant flow rate of 20 μL/min. P140 peptide and analogues were injected in the flux at different concentrations for 3 min, followed by a dissociation phase of 3 min. The kinetic parameters were calculated using the BIAeval 3.1 software on a personal computer. Analysis was performed using the simple 1:1 Langmuir binding model. The specific binding profiles were obtained after subtracting the response signal from the control empty channel and from blank-buffer injection. The fitting to each model was judged by the χ^2 value and randomness of residue distribution compared to the theoretical model.

MRL/lpr mice [1] = assay: Proteinuria analysis in MRL/lpr mice (Albustix); format: in vivo, mouse; settings: compared to the untreated mice
Protocol: Proteinuria of the above mice was measured in fresh urine using Albustix (Bayer Diagnostics) and was semi-quantitatively estimated according to a […] recommended by the manufacturer (no proteinuria=0; traces=1; 1+=2; 2+=3; 3+=4; 4+=5).

MRL/lpr mice [2] = assay: Survival analysis in MRL/lpr lupus mice; format: in vivo, mouse; settings: female MRL/lpr mice, intravenous, 20 mice per group; NaCl control 25 weeks
Protocol: It has been determined that this mouse strain carries a mutation in the fas gene. Also, the MRL/lpr is a useful model to study behavioural and cognitive deficits found in autoimmune diseases and the efficacy of immunosuppressive agents [Monneaux et al., 2003, Eur. J. Immunol. 33, 287-296].
Five-week-old female MRL/lpr mice received P140 or peptide P140(MO) intravenously as described (Monneaux et al., 2003, Eur. J. Immunol. 33, 287-296). All experimental protocols were carried out with the approval of the local Institutional Animal Care and Use Committee (CREMEAS). As control, mice were injected with NaCl.
Twenty mice were used for each peptide or NaCl.
Statistical tests were performed using GraphPad Prism version 5.0. The two-way ANOVA test was used to analyze statistical significance of proteinuria differences between control and peptide-treated groups of mice. Survival of control and P140 analogue-treated female MRL/lpr mice was analyzed by the Kaplan-Meier method, and the significance of differences was determined by the log-rank test. For the other variables, statistical significance was assessed using the Student's t-test. p values less than 0.05 were considered significant.

MRL/lpr mice [3] = assay: Cellularity analysis of peripheral blood in MRL/lpr mice; format: in vivo, mouse; settings: 100 μg/100 μL single injection, 5 days after
Protocol: MRL/lpr mice were injected with 100 μg/100 μL of P140 or P140(MO) and cellularity (preipheral blood) was studied 5 days after this unique injection. The count includes all the leucocytes. In view of the low number of tested mice, a non parametric statistical test has been realised Mann-Whitney).

[4] = target: Recombinant bovine HSC70 (Stressgen) (bovine) (UniProt P19120); assay: SPR, BIAcore 3000; HSC70 immobilised, peptide injected at 3.12 µM; 1:1 Langmuir fit
[5] = target: Recombinant bovine HSC70 (Stressgen) (bovine) (UniProt P19120); assay: SPR, BIAcore 3000; HSC70 immobilised, peptide injected at 6.25 µM; 1:1 Langmuir fit
[6] = target: Recombinant bovine HSC70 (Stressgen) (bovine) (UniProt P19120); assay: SPR, BIAcore 3000; HSC70 immobilised, peptide injected; 1:1 Langmuir fit; row for analyte at 25 µM
[7] = target: Recombinant bovine HSC70 (Stressgen) (bovine) (UniProt P19120); assay: SPR, BIAcore 3000; HSC70 immobilised, peptide injected; 1:1 Langmuir fit; row for analyte at 6.25 µM
[8] = target: Recombinant bovine HSC70 (Stressgen) (bovine) (UniProt P19120); assay: SPR, BIAcore 3000; HSC70 immobilised, peptide injected at 25 µM; 1:1 Langmuir fit
[9] = target: Recombinant bovine HSC70 (Stressgen) (bovine) (UniProt P19120); assay: SPR, BIAcore 3000; HSC70 immobilised, peptide injected; 1:1 Langmuir fit; row for analyte at 12.5 µM
[10] = target: Recombinant bovine HSC70 (Stressgen) (bovine) (UniProt P19120); assay: SPR, BIAcore 3000; HSC70 immobilised, peptide injected; 1:1 Langmuir fit; row for analyte at 1.56 µM
[11] = target: Recombinant bovine HSC70 (Stressgen) (bovine) (UniProt P19120); assay: SPR, BIAcore 3000; HSC70 immobilised, peptide injected at 1.56 µM; 1:1 Langmuir fit
[12] = target: Recombinant bovine HSC70 (Stressgen) (bovine) (UniProt P19120); assay: SPR, BIAcore 3000; HSC70 immobilised, peptide injected at 12.5 µM; 1:1 Langmuir fit
[13] = target: Recombinant bovine HSC70 (Stressgen) (bovine) (UniProt P19120); assay: SPR, BIAcore 3000; HSC70 immobilised, peptide injected; 1:1 Langmuir fit; row for analyte at 3.12 µM

T1 sequence (P19120 whole entry): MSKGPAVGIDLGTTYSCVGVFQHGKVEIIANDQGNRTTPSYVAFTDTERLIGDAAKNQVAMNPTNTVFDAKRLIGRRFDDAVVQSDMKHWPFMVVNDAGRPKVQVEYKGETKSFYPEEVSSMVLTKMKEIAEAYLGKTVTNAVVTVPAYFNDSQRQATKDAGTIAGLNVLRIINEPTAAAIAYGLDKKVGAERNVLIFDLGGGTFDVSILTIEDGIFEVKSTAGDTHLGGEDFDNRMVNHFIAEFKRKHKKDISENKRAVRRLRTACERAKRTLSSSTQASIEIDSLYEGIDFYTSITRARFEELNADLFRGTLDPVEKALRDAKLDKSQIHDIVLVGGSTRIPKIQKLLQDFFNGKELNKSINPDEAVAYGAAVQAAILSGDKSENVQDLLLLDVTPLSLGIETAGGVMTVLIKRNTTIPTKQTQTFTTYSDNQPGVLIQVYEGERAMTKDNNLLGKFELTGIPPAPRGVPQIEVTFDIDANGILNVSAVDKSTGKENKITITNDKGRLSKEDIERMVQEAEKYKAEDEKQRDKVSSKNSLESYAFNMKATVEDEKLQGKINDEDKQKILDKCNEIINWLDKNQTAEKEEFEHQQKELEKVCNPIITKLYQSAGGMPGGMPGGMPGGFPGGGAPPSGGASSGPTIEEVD
Sequence of Recombinant bovine HSC70 (Stressgen) (bovine) (P19120 whole entry): as above

Molecule	Req [4]	kobs [4]	Req [5]	kobs [5]	Ka [6]	Kd [6]	koff [6]	Ka [7]	Kd [7]	koff [7]	Req [8]	kobs [8]	Ka [9]	Kd [9]	koff [9]	Ka [10]	Kd [10]	koff [10]	Req [11]	kobs [11]	other results
CC[C@H](C)[C@H](NC(=O)[C@H](Cc1ccccc1)NC(=O)[C@H](C)NC(=O)[C@H](Cc1ccc(O)cc1)NC(=O)CNC(=O)[C@H](CCCNC(=N)N)NC(=O)[C@@H]1CCCN1C(=O)[C@H](CCCCN)NC(=O)CNC(=O)[C@H](COP(=O)(O)O)NC(=O)[C@H](CCCNC(=N)N)NC(=O)[C@H](CCCCN)NC(=O)[C@H](CO)NC(=O)[C@H](Cc1ccc(O)cc1)NC(=O)[C@@H](NC(=O)[C@H](CC[S+](C)[O-])NC(=O)[C@H](Cc1c[nH]cn1)NC(=O)[C@@H](NC(=O)[C@@H](N)CCCNC(=N)N)[C@@H](C)CC)C(C)C)C(=O)N[C@@H](CCC(=O)O)C(=O)N[C@@H](Cc1ccc(O)cc1)C(=O)O (stereo partly drawn) [P140(MO), RIHM(O)VYSKRS(PO3H2)GKPRGYAFIEY] (H-RIH[Met(O)]VYSKR[pS]GKPRGYAFIEY-OH)	–	–	–	–	–	–	–	–	–	–	–	–	–	–	–	–	–	–	–	–	Rmax (RU) (HSC70 protein; 25° C., 1:1 Langmuir model): 39 RU; kon (HSC70 protein; 25° C., 1:1 Langmuir model, analyte 1.56-25 μM, read-out: ka): 1150 M⁻¹ s⁻¹; Affinity for HSC70, oxidized vs non-oxidized peptide (in words) (HSC70 protein; P140 compared with P140 M(O)): not statistically different; Req (RU) (HSC70 protein; peptide 1.56 μM): 17.6 RU; Req (RU) (HSC70 protein; peptide 3.12 μM): 24.2 RU; Req (RU) (HSC70 protein; peptide 6.25 μM): 29.9 RU; Req (RU) (HSC70 protein; peptide 12.5 μM): 33.9 RU; kobs (HSC70 protein; peptide 12.5 μM): 0.0166 s⁻¹; Req (RU) (HSC70 protein; peptide 25 μM): 36.3 RU; kobs (HSC70 protein; peptide 25 μM): 0.031 s⁻¹; Proteinuria (MRL/lpr mice [1]): less important and appears lately; Median survival (MRL/lpr mice [2]): > 40 weeks; Peripheral hypercellularity (MRL/lpr mice [3]): decrease peripheral hypercellularity
RIH[Met(O)]VYSKR[pS]GKPRGYAFIEY	24.2 RU	0.0058 s⁻¹	29.9 RU	0.0094 s⁻¹	524000 M⁻¹	1.91 µM	0.0022 s⁻¹	524000 M⁻¹	1.91 µM	0.0022 s⁻¹	36.3 RU	0.031 s⁻¹	524000 M⁻¹	1.91 µM	0.0022 s⁻¹	524000 M⁻¹	1.91 µM	0.0022 s⁻¹	17.6 RU	0.004 s⁻¹	Req [12]: 33.9 RU; kobs [12]: 0.0166 s⁻¹; Ka [13]: 524000 M⁻¹; Kd [13]: 1.91 µM; koff [13]: 0.0022 s⁻¹
RIHMVYSKR[pS]GKPRGYAFIEY [P140 peptide (SEQ ID NO: 1 in which serine at position 10 is phosphorylated; SEQ ID NO: 4)]	25.8 RU	0.00452 s⁻¹	39.5 RU	0.00593 s⁻¹	144000 M⁻¹	6.94 µM	0.00312 s⁻¹	144000 M⁻¹	6.94 µM	0.00312 s⁻¹	65.2 RU	0.0144 s⁻¹	144000 M⁻¹	6.94 µM	0.00312 s⁻¹	144000 M⁻¹	6.94 µM	0.00312 s⁻¹	15.3 RU	0.00382 s⁻¹	Req [12]: 53.6 RU; kobs [12]: 0.00874 s⁻¹; Ka [13]: 144000 M⁻¹; Kd [13]: 6.94 µM; koff [13]: 0.00312 s⁻¹
